Measurements taken from paper PMC2190859.

Molecular target: collagen
Assay: cell adhesion assay

very late antigen 4 (VLA-4, alpha4 beta1 integrin) (from UniProt P13612;P05556) (receptor)
percent of cells binding: < 5%
